According to patent US20130011380A1:
“And” between values parts separate entries of the source, which are not always exact repeats. Identical values can stand only once.

Legend:
Assay in all cases: anti-Flag IP-MS, mES nuclear extract
Prpf4b (mouse) = Prpf4b (mouse) (UniProt Q61136)
Cct6a (mouse) = Cct6a (mouse) (UniProt P80317)
Rfc5 (mouse) = Rfc5 (mouse) (UniProt Q9D0F6)
Psmc5 (mouse) = Psmc5 (mouse) (UniProt P62196)
Ttf1 (mouse) = Ttf1 (mouse) (UniProt Q62187)
Kpnb1 (mouse) = Kpnb1 (mouse) (UniProt P70168)
Akap8 (mouse) = Akap8 (mouse) (UniProt Q9DBR0)
Cbx1 (mouse) = Cbx1 (mouse) (UniProt P83917)
Cpsf1 (mouse) = Cpsf1 (mouse) (UniProt Q9EPU4)
Smc2 (mouse) = Smc2 (mouse) (UniProt Q8CG48)
Upf1 (mouse) = Upf1 (mouse) (UniProt Q9EPU0)
Copa (mouse) = Copa (mouse) (UniProt Q8CIE6)
Bst2 (mouse) = Bst2 (mouse) (UniProt Q8R2Q8)
Aff4 (mouse) = Aff4 (mouse) (UniProt Q9ESC8)
Smarca5 (mouse) = Smarca5 (mouse) (UniProt Q91ZW3)
Calu (mouse) = Calu (mouse) (UniProt O35887)
Cct7 (mouse) = Cct7 (mouse) (UniProt P80313)
Rangap1 (mouse) = Rangap1 (mouse) (UniProt P46061)
Gcn1l1 (mouse) = Gcn1l1 (mouse) (UniProt E9PVA8)
Peg10 (mouse) = Peg10 (mouse) (UniProt Q7TN75)
Zfp655 (mouse) = Zfp655 (mouse) (UniProt Q9CZP3)
Pou5f1 (mouse) = Pou5f1 (mouse) (UniProt P20263)
Tmpo (mouse) = biological target: Tmpo (mouse)
Tip2 (mouse) = biological target: Tip2 (mouse)
Atxn10 (mouse) = Atxn10 (mouse) (UniProt P28658)
Smarca1 (mouse) = Smarca1 (mouse) (UniProt Q6PGB8)
Ywhaz (mouse) = Ywhaz (mouse) (UniProt P63101)
Lmo7 (mouse) = Lmo7 (mouse) (UniProt E9PYF4)
Smarcc1 (mouse) = Smarcc1 (mouse) (UniProt P97496)
Lars (mouse) = Lars (mouse) (UniProt Q8BMJ2)
Spna2 (mouse) = Spna2 (mouse) (UniProt P16546)
Kif23 (mouse) = Kif23 (mouse) (UniProt E9Q5G3)
Chain of Kif23 (mouse) (E9Q5G3 whole entry): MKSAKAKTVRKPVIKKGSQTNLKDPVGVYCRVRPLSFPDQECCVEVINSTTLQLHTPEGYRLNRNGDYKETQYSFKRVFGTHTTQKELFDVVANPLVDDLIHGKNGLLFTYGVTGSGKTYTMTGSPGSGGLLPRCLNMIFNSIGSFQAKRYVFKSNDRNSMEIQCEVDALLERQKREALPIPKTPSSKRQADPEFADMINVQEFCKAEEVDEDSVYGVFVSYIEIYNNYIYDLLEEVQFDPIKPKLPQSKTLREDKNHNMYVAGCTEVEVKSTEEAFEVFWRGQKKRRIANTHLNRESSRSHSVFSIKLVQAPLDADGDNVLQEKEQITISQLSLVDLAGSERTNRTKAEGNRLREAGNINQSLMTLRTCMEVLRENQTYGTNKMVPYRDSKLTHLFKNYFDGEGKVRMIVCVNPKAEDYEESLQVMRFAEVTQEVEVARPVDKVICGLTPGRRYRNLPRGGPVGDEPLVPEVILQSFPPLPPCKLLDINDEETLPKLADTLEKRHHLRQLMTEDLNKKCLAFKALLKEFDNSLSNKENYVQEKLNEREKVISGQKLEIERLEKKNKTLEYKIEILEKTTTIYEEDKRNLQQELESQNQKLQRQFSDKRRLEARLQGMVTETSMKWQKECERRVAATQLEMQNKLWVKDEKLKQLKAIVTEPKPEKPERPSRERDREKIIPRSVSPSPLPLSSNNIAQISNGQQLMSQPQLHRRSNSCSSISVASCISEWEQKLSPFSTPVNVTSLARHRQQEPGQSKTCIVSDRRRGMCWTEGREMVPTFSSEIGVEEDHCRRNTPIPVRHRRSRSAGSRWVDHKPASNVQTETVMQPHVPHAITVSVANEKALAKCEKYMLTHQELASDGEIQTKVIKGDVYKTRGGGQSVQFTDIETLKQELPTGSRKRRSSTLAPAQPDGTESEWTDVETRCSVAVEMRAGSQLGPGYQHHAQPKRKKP

Chain of Cbx1 (mouse) (P83917 whole entry): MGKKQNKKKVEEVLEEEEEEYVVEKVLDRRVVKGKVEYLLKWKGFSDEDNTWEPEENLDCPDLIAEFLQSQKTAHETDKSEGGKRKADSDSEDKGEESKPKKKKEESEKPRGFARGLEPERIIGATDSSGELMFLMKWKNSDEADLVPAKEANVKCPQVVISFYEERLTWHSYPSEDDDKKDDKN
Chain of Ttf1 (mouse) (Q62187 whole entry): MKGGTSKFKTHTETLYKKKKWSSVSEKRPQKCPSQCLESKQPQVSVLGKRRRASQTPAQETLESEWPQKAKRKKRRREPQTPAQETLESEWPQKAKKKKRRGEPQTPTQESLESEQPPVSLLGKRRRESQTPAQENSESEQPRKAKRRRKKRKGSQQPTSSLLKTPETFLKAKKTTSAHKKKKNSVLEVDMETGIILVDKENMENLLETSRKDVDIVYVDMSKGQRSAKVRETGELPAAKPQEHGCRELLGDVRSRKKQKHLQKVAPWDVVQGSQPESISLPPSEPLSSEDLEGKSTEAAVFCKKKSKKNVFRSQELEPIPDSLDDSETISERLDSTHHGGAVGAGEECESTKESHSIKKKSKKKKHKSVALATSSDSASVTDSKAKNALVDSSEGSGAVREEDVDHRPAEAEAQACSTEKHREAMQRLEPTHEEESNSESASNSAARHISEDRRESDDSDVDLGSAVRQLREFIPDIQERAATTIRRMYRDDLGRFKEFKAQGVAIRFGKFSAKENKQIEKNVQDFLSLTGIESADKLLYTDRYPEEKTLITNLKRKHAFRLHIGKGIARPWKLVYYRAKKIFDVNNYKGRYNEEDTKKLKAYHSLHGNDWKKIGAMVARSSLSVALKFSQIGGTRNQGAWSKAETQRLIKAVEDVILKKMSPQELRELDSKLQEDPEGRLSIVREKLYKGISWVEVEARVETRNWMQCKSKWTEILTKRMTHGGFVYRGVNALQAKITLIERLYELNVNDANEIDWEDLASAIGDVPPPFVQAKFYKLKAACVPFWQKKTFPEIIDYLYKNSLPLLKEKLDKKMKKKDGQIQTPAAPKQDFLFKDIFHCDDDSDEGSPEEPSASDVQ
Chain of Rangap1 (mouse) (P46061 2-589 limits assumed): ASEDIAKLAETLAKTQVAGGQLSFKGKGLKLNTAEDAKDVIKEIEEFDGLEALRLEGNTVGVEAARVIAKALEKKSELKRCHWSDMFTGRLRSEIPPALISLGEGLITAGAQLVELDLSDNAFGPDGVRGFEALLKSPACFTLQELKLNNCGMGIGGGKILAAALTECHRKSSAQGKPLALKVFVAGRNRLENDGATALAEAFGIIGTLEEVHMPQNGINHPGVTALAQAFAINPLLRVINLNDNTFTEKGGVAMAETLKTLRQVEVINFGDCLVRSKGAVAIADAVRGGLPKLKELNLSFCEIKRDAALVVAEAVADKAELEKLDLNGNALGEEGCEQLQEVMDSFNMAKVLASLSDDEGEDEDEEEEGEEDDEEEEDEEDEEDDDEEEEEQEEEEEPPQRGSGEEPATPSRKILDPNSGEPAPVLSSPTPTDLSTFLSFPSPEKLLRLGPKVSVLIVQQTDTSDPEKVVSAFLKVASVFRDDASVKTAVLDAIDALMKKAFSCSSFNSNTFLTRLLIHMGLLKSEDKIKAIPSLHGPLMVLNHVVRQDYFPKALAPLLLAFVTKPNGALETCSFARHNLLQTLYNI
Chain of Upf1 (mouse) (Q9EPU0 whole entry): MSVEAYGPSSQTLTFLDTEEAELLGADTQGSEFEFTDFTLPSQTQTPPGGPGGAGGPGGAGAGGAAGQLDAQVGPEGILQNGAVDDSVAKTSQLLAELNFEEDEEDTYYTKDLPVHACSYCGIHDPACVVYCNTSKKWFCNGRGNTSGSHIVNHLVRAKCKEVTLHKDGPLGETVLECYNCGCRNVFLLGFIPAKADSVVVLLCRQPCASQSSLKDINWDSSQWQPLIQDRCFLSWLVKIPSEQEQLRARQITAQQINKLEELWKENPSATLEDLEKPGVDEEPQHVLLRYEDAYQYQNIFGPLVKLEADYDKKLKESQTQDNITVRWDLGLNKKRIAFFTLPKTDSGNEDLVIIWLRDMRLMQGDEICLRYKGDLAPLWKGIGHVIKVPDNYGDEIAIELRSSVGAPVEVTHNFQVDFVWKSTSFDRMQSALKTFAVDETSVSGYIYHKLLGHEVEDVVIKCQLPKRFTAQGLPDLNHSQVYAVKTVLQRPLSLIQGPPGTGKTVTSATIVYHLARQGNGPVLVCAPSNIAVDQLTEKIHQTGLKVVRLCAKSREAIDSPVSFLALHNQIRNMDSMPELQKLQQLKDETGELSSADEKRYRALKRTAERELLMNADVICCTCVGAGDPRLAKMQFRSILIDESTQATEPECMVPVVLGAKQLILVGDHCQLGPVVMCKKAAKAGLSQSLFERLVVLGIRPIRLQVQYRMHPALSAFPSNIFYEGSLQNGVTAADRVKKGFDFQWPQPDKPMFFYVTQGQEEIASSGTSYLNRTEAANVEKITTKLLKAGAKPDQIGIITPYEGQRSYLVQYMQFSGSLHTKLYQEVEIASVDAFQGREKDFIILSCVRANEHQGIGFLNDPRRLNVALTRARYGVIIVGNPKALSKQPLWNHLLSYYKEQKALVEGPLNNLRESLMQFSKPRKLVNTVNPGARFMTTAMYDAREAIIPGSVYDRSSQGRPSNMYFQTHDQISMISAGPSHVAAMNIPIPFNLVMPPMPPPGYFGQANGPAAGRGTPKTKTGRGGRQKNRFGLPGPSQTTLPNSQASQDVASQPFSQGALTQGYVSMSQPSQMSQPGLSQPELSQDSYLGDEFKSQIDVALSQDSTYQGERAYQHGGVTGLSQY
Chain of Pou5f1 (mouse) (P20263 whole entry): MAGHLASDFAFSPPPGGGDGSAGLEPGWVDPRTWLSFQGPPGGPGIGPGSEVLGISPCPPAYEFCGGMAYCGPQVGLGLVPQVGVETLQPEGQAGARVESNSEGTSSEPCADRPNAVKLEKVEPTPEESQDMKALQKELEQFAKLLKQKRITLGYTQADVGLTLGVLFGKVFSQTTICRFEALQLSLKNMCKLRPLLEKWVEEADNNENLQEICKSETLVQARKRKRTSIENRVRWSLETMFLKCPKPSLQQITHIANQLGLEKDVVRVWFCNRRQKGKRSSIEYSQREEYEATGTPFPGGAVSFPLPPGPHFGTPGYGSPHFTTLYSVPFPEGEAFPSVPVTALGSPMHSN
Chain of Akap8 (mouse) (Q9DBR0 whole entry): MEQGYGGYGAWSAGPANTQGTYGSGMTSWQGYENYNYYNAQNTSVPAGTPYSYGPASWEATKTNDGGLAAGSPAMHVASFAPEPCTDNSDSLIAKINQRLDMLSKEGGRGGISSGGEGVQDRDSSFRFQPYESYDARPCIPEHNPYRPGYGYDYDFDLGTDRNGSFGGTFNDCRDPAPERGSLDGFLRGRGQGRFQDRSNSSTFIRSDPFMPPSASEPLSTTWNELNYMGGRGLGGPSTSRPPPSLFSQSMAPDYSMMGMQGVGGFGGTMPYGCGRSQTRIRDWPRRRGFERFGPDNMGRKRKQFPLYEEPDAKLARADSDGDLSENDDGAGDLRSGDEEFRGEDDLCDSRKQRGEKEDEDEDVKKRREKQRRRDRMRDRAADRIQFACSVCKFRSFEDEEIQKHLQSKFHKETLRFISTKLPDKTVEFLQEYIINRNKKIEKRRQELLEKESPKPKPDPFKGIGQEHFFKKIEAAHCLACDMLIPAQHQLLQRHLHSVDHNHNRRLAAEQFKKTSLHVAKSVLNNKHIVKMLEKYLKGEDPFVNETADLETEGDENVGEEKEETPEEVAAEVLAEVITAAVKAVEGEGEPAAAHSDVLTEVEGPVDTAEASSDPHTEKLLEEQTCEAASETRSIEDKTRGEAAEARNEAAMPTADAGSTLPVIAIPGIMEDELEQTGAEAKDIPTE
Chain of Ywhaz (mouse) (P63101 whole entry): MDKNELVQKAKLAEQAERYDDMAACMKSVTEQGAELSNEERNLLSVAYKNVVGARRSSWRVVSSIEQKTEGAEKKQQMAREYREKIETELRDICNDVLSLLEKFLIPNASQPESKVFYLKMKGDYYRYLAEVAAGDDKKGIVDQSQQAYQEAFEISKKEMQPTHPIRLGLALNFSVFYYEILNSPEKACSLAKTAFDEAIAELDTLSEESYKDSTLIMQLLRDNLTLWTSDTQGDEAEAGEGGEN

Substance: 2x Flag tag only (control) (peptide)
- Nucleus peptide (Prpf4b (mouse)): 0 peptides
- Nucleus spectra (Prpf4b (mouse)): 0 spectra
- Nucleus peptide (Cct6a (mouse)): 6 peptides
- Nucleus spectra (Cct6a (mouse)): 9 spectra
- Nucleus peptide (Rfc5 (mouse)): 0 peptides
- Nucleus spectra (Rfc5 (mouse)): 0 spectra
- Nucleus peptide (Psmc5 (mouse)): 0 peptides
- Nucleus spectra (Psmc5 (mouse)): 0 spectra
- Nucleus peptide (Ttf1 (mouse)): 1 peptides
- Nucleus spectra (Ttf1 (mouse)): 1 spectra
- Nucleus peptide (Kpnb1 (mouse)): 5 peptides
- Nucleus spectra (Kpnb1 (mouse)): 13 spectra
- Nucleus peptide (Akap8 (mouse)): 0 peptides
- Nucleus spectra (Akap8 (mouse)): 0 spectra
- Nucleus peptide (Cbx1 (mouse)): 1 peptides
- Nucleus spectra (Cbx1 (mouse)): 4 spectra
- Nucleus peptide (Cpsf1 (mouse)): 0 peptides
- Nucleus spectra (Cpsf1 (mouse)): 0 spectra
- Nucleus peptide (Smc2 (mouse)): 4 peptides
- Nucleus spectra (Smc2 (mouse)): 6 spectra
- Nucleus peptide (Upf1 (mouse)): 2 peptides
- Nucleus spectra (Upf1 (mouse)): 3 spectra
- Nucleus peptide (Copa (mouse)): 1 peptides
- Nucleus spectra (Copa (mouse)): 4 spectra
- Nucleus peptide (Bst2 (mouse)): 1 peptides
- Nucleus spectra (Bst2 (mouse)): 1 spectra
- Nucleus peptide (Aff4 (mouse)): 0 peptides
- Nucleus spectra (Aff4 (mouse)): 0 spectra
- Nucleus peptide (Smarca5 (mouse)): 8 peptides
- Nucleus spectra (Smarca5 (mouse)): 15 spectra
- Nucleus peptide (Calu (mouse)): 0 peptides
- Nucleus spectra (Calu (mouse)): 0 spectra
- Nucleus peptide (Cct7 (mouse)): 0 peptides
- Nucleus spectra (Cct7 (mouse)): 0 spectra
- Nucleus peptide (Rangap1 (mouse)): 0 peptides
- Nucleus spectra (Rangap1 (mouse)): 0 spectra
- Nucleus peptide (Gcn1l1 (mouse)): 3 peptides
- Nucleus spectra (Gcn1l1 (mouse)): 5 spectra
- Nucleus peptide (Peg10 (mouse)): 2 peptides
- Nucleus spectra (Peg10 (mouse)): 2 spectra
- Nucleus peptide (Zfp655 (mouse)): 0 peptides
- Nucleus spectra (Zfp655 (mouse)): 0 spectra
- Nucleus peptide (Pou5f1 (mouse)): 2 peptides
- Nucleus spectra (Pou5f1 (mouse)): 3 spectra
- Nucleus peptide (Tmpo (mouse)): 2 peptides
- Nucleus spectra (Tmpo (mouse)): 6 spectra
- Nucleus peptide (Tip2 (mouse)): 6 peptides
- Nucleus spectra (Tip2 (mouse)): 14 spectra
- Nucleus peptide (Atxn10 (mouse)): 4 peptides
- Nucleus spectra (Atxn10 (mouse)): 10 spectra
- Nucleus peptide (Smarca1 (mouse)): 2 peptides
- Nucleus spectra (Smarca1 (mouse)): 3 spectra
- Nucleus peptide (Ywhaz (mouse)): 1 peptides
- Nucleus spectra (Ywhaz (mouse)): 6 spectra
- Nucleus peptide (Lmo7 (mouse)): 0 peptides
- Nucleus spectra (Lmo7 (mouse)): 0 spectra
- Nucleus peptide (Smarcc1 (mouse)): 4 peptides
- Nucleus spectra (Smarcc1 (mouse)): 4 spectra
- Nucleus peptide (Lars (mouse)): 4 peptides
- Nucleus spectra (Lars (mouse)): 6 spectra
- Nucleus peptide (Spna2 (mouse)): 5 peptides
- Nucleus spectra (Spna2 (mouse)): 9 spectra

Substance: human AID containing two tandem Flag tags (Flag-human AID) (from UniProt Q9GZX7 1-198) (enzyme)
- Nucleus peptide (Prpf4b (mouse)): 3 peptides
- Nucleus spectra (Prpf4b (mouse)): 7 spectra
- Nucleus peptide (Cct6a (mouse)): 9 peptides
- Nucleus spectra (Cct6a (mouse)): 20 spectra
- Nucleus peptide (Rfc5 (mouse)): 3 peptides
- Nucleus spectra (Rfc5 (mouse)): 5 spectra
- Nucleus peptide (Psmc5 (mouse)): 5 peptides
- Nucleus spectra (Psmc5 (mouse)): 8 spectra
- Nucleus peptide (Ttf1 (mouse)): 3 peptides
- Nucleus spectra (Ttf1 (mouse)): 4 spectra
- Nucleus peptide (Kpnb1 (mouse)): 15 peptides
- Nucleus spectra (Kpnb1 (mouse)): 43 spectra
- Nucleus peptide (Akap8 (mouse)): 4 peptides
- Nucleus spectra (Akap8 (mouse)): 12 spectra
- Nucleus peptide (Cbx1 (mouse)): 2 peptides
- Nucleus spectra (Cbx1 (mouse)): 12 spectra
- Nucleus peptide (Cpsf1 (mouse)): 4 peptides
- Nucleus spectra (Cpsf1 (mouse)): 8 spectra
- Nucleus peptide (Smc2 (mouse)): 7 peptides
- Nucleus spectra (Smc2 (mouse)): 16 spectra
- Nucleus peptide (Upf1 (mouse)): 5 peptides
- Nucleus spectra (Upf1 (mouse)): 8 spectra
- Nucleus peptide (Copa (mouse)): 5 peptides
- Nucleus spectra (Copa (mouse)): 9 spectra
- Nucleus peptide (Bst2 (mouse)): 4 peptides
- Nucleus spectra (Bst2 (mouse)): 12 spectra
- Nucleus peptide (Aff4 (mouse)): 13 peptides
- Nucleus spectra (Aff4 (mouse)): 25 spectra
- Nucleus peptide (Smarca5 (mouse)): 16 peptides
- Nucleus spectra (Smarca5 (mouse)): 45 spectra
- Nucleus peptide (Calu (mouse)): 3 peptides
- Nucleus spectra (Calu (mouse)): 6 spectra
- Nucleus peptide (Kif23 (mouse)): 4 peptides and 7 peptides
- Nucleus spectra (Kif23 (mouse)): 11 spectra and 18 spectra
- Nucleus peptide (Cct7 (mouse)): 3 peptides
- Nucleus spectra (Cct7 (mouse)): 5 spectra
- Nucleus peptide (Rangap1 (mouse)): 10 peptides
- Nucleus spectra (Rangap1 (mouse)): 29 spectra
- Nucleus peptide (Gcn1l1 (mouse)): 14 peptides
- Nucleus spectra (Gcn1l1 (mouse)): 24 spectra
- Nucleus peptide (Peg10 (mouse)): 3 peptides
- Nucleus spectra (Peg10 (mouse)): 5 spectra
- Nucleus peptide (Zfp655 (mouse)): 4 peptides
- Nucleus spectra (Zfp655 (mouse)): 9 spectra
- Nucleus peptide (Pou5f1 (mouse)): 4 peptides
- Nucleus spectra (Pou5f1 (mouse)): 13 spectra
- Nucleus peptide (Atxn10 (mouse)): 10 peptides
- Nucleus spectra (Atxn10 (mouse)): 23 spectra
- Nucleus peptide (Smarca1 (mouse)): 7 peptides
- Nucleus spectra (Smarca1 (mouse)): 14 spectra
- Nucleus peptide (Ywhaz (mouse)): 6 peptides
- Nucleus spectra (Ywhaz (mouse)): 17 spectra
- Nucleus peptide (Smarcc1 (mouse)): 6 peptides
- Nucleus spectra (Smarcc1 (mouse)): 10 spectra
- Nucleus peptide (Lars (mouse)): 9 peptides
- Nucleus spectra (Lars (mouse)): 13 spectra
- Nucleus peptide (Spna2 (mouse)): 14 peptides
- Nucleus spectra (Spna2 (mouse)): 28 spectra
